According to PMC9439264 (Nature Communications, 2022):
Where “and” joins values, the source holds several entries; their conditions need not be identical. Equal entries are not always repeated.

Experiments:
[1] = target: HA ectodomain of A/Beijing/262/1995 (H1N1), recombinant, with C-terminal thrombin site, foldon and 6-His-tag (Influenza A virus A/Beijing/262/1995 …, strain); experiment: SPR; details: both partners purified
[2] = target: HA ectodomain of A/Beijing/262/1995 (H1N1), recombinant (Influenza A virus A/Beijing/262/1995 …, strain); experiment: SPR; details: both partners purified
[3] = target: HA ectodomain of A/New Caledonia/20/1999 (H1N1), recombinant (Influenza A virus A/New …, UniProt Q6WG00, strain); experiment: ELISA; details: both partners purified
[4] = target: HA of A/New Caledonia/20/1999 (H1N1) virus, in infected MDCK cells (Influenza A virus A/New …, UniProt Q6WG00, strain); experiment: immunostaining of cells or tissue; details: one partner purified
[5] = target: HA of B/Florida/4/2006 (Yamagata) (Influenza B virus B/Florida/4/2006 …, UniProt E1TVD5, strain); experiment: ELISA; details: both partners purified
[6] = target: HA ectodomain of A/Beijing/262/1995 (H1N1) (Influenza A virus A/Beijing/262/1995 …, strain); experiment: SPR; details: both partners purified
[7] = target: T1, HA trimer of A/Beijing/262/1995 (H1N1), thrombin- and trypsin-treated, for the immune complex (Influenza A virus A/Beijing/262/1995 …); experiment: cryo-EM structure; 12H5 Fab with thrombin- and trypsin-treated BJ/1995 HA trimer; details: both partners purified
T1 construct: copies: 3 + 3

B1: C12H5, human-mouse chimeric version of mAb 12H5 (variable region of mouse 12H5, human IgG1 constant region) (antibody, V domains shown)
VH: QIQLVQSGPELKKPGETVRISCKASGYTFTKNGMNWVQQAPGKGLKWVGWINTYTGEPSYADDFKGRFAFSLETSASTAYLQINNLKNEDMAAYFCARMVRDAMDFWGQGTSVTVSS
VL: DIVLTQSPASLAVSLGQRATISCKASQSVDFDGYNYLNWYQQKPGQPPKLLIYAASNLESGIPARFSGSGSGTDFTLNIHPVEEEDAATYFCQQSNEDPYTFGGGTKLEIK
notes: also called MAb C12H5; C12H5 IgG; copies: 2 + 2
For B1, the koff [1] was 0.00089 s⁻¹ and the kon [1] was 109000 M⁻¹ s⁻¹.

B2: C12H5 (human-mouse chimeric version of mAb 12H5) (antibody, V domains shown)
VH: QIQLVQSGPELKKPGETVRISCKASGYTFTKNGMNWVQQAPGKGLKWVGWINTYTGEPSYADDFKGRFAFSLETSASTAYLQINNLKNEDMAAYFCARMVRDAMDFWGQGTSVTVSS
VL: DIVLTQSPASLAVSLGQRATISCKASQSVDFDGYNYLNWYQQKPGQPPKLLIYAASNLESGIPARFSGSGSGTDFTLNIHPVEEEDAATYFCQQSNEDPYTFGGGTKLEIK
notes: also called chimeric 12H5 monoclonal antibody; MAb C12H5
B2 was tested, and the Kd [2] was 8.1 nM, the binding result [3] was “binds” and the binding result [4] was “binds”.

B3: C12H5 (chimeric 12H5 monoclonal antibody: variable region of mouse 12H5, human IgG1 constant region) (antibody, V domains shown)
VH: QIQLVQSGPELKKPGETVRISCKASGYTFTKNGMNWVQQAPGKGLKWVGWINTYTGEPSYADDFKGRFAFSLETSASTAYLQINNLKNEDMAAYFCARMVRDAMDFWGQGTSVTVSS
VL: DIVLTQSPASLAVSLGQRATISCKASQSVDFDGYNYLNWYQQKPGQPPKLLIYAASNLESGIPARFSGSGSGTDFTLNIHPVEEEDAATYFCQQSNEDPYTFGGGTKLEIK
notes: also called MAb C12H5; source: CHO cells, transient transfection, purified from culture media (MAbselect Sure)
With B3 the binding result [5] was “no binding”, the Kd [6] was 8.85 nM and the koff [6] was 0.0007 s⁻¹ and 0.00089 s⁻¹ and 0.00108 s⁻¹. The kon [6] was 109000 M⁻¹ s⁻¹ and 122000 M⁻¹ s⁻¹ and 95300 M⁻¹ s⁻¹.

B4: 12H5 Fab (mouse antibody) (Fab, V domains shown)
VH: QIQLVQSGPELKKPGETVRISCKASGYTFTKNGMNWVQQAPGKGLKWVGWINTYTGEPSYADDFKGRFAFSLETSASTAYLQINNLKNEDMAAYFCARMVRDAMDFWGQGTSVTVSS
VL: DIVLTQSPASLAVSLGQRATISCKASQSVDFDGYNYLNWYQQKPGQPPKLLIYAASNLESGIPARFSGSGSGTDFTLNIHPVEEEDAATYFCQQSNEDPYTFGGGTKLEIK
notes: source: papain digestion of mAb 12H5 (mouse ascites, protein A), purified with DEAE-5PW
B4 was tested, and the “stoichiometry N” value [7] was 3 Fab per HA trimer.

B5: CH65, chimeric version (antibody, V domains shown)
VH: EVQLVQSGAEVKKPGASVKVSCKASGYTFTDYHINWVRQAPGQGLEWMGWIHPNSGDTNYAQKFQGWVTMTRDTAISTAYMEVNGLKSDDTAVYYCARGGLEPRSVDYYYYGMDVWGQGTTVTVSS
VL: SVLTQPPSVSVAPGQTARITCGGNDIGRKSVHWNQQKPGQAPVLVVCYDSDRPSGIPERFSGSNSGNTATLTISRVEAGDEADYYCQVWDSSSDHVIFGGGTKLTVL
B5: binds [3].
